Laboratory results as given in paper PMC4989220, “The role of Rab6a and phosphorylation of non-muscle myosin IIA tailpiece in alcohol-induced Golgi disorganization” (Scientific Reports, 2016).
Residue numbers refer to the chain shown, from its start.

B1: Rab6a GTPase (natural protein, UniProt P20340 1-208, looked up)
chain: MSTGGDFGNPLRKFKLVFLGEQSVGKTSLITRFMYDSFDNTYQATIGIDFLSKTMYLEDRTVRLQLWDTAGQERFRSLIPSYIRDSTVAVVVYDITNVNSFQQTTKWIDDVRTERGSDVIIMLVGNKTDLADKRQVSIEEGERKAKELNVMFIETSAKAGYNVKQLFRRVAAALPGMESTQDRSREDMIDIKLEKPQEQPVSEGGCSC
notes: Rab6a GTPase, endogenous in VA-13 cells (HepG2 cells expressing ADH); source: endogenous, VA-13 cells (lysate, Golgi fraction, fixed cells)
B2: Rab6a GTPase (rat hepatocytes) (natural protein, rat (endogenous in primary hepatocytes), UniProt Q9WVB1 1-208, looked up)
chain: B1 chain with T3A, S202N
notes: Rab6a, endogenous in hepatocytes of male Wistar rats; source: endogenous, primary rat hepatocytes (fixed cells, Golgi fraction)

Biological target: the molecule itself
Assay: Western blot of Golgi membrane fraction (dimer band); Rab6a Western blot of the Golgi fraction (sucrose gradient) from control VA-13 cells and hepatocytes from control rats

| Protein | stoichiometry N |
| --- | --- |
| B1 | 2 |
| B2 | 2 |
